# Reference: patent US20240084042A1 (Genentech, published 2024)
# Read-outs that look alike come from different tables or passages of the source.
# T1: human KLK5 (human, UniProt Q9Y337 67-293)
# T1 construct: also called huKLK5; KLK5 AMC
# T1 sequence: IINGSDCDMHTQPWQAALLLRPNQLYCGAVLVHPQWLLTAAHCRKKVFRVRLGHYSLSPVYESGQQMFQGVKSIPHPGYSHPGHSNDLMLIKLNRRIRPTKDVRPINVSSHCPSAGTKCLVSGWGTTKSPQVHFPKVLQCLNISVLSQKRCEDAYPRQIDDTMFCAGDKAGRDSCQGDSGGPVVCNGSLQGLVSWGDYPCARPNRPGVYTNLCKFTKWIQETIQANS
# T2: cynomolgus monkey KLK5 (cynomolgus monkey, UniProt Q9Y337 67-293 (human entry))
# T2 construct: also called cyno KLK5
# T2 chain: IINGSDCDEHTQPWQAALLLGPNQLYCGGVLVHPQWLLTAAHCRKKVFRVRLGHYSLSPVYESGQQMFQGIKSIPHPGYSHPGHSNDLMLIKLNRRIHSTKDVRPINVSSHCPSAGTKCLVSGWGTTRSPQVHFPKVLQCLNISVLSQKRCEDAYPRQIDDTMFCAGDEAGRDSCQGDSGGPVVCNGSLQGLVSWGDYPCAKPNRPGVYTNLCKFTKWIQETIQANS
# Assays:
# Assay in all cases: SPR, one-armed monovalent antibody
# human KLK5 [1] = target: T1, human KLK5
# cynomolgus monkey KLK5 [2] = target: T2, cynomolgus monkey KLK5
# human KLK5 [3] = target: T1, human KLK5; remark: listed apart in the source
# cynomolgus monkey KLK5 [4] = target: T2, cynomolgus monkey KLK5
Kd (human KLK5 [1]) [nM],koff (human KLK5 [1]) [s⁻¹],kon (human KLK5 [1]) [M⁻¹ s⁻¹],Kd (cynomolgus monkey KLK5 [2]) [nM],koff (cynomolgus monkey KLK5 [2]) [s⁻¹],kon (cynomolgus monkey KLK5 [2]) [M⁻¹ s⁻¹],Kd (human KLK5 [3]) [nM],koff (human KLK5 [3]) [s⁻¹],kon (human KLK5 [3]) [M⁻¹ s⁻¹],Kd (cynomolgus monkey KLK5 [4]) [nM],koff (cynomolgus monkey KLK5 [4]) [s⁻¹],kon (cynomolgus monkey KLK5 [4]) [M⁻¹ s⁻¹],Binder
0.102,0.00128,1.25e+07,0.371,0.00424,1.14e+07,–,–,–,–,–,–,"OA.hu.10C5.L5H28.WT (antibody, V domains shown, One-armed (OA) monovalent anti-KLK5 antibody with a human IgG1 Fc, without Q38E/Q39K; constant regions and dummy Fc chain not specified) VH: EVQLVESGGGLVQPGGSLRLSCAASGFSLSSYGVTWVRQAPGKGLEWIGYITSNYGVSYYASWAKSRSTISRDTSKNTVYLQMGSLRAEDMAVYYCARENPDYGYAYDAWGQGTTVTVSS VL: AIRMTQSPSSFSASTGDRVTITCQASESISNELSWYQQKPGKAPKLLIYYASTLASGVPSRFSGSGSGTDFTLTISSLQPEDFATYYCAQGFGSSGVENVFGGGTKVEIK"
0.00382,2.45e-05,6.41e+06,0.00885,0.000161,1.82e+07,–,–,–,–,–,–,"OA.hu.10C5.N53V.F92Y (antibody, V domains shown, One-armed (OA) monovalent anti-KLK5 antibody with a human IgG1 Fc, with Q38E/Q39K; constant regions and dummy Fc chain not specified) VH: EVQLVESGGGLVQPGGSLRLSCAASGFSLSSYGVTWVRKAPGKGLEWIGYITSVYGVSYYASWAKSRSTISRDTSKNTVYLQMGSLRAEDMAVYYCARENPDYGYAYDAWGQGTTVTVSS VL: AIRMTQSPSSFSASTGDRVTITCQASESISNELSWYQEKPGKAPKLLIYYASTLASGVPSRFSGSGSGTDFTLTISSLQPEDFATYYCAQGYGSSGVENVFGGGTKVEIK"
0.000853,8.65e-06,1.01e+07,0.00376,5.72e-05,1.52e+07,–,–,–,–,–,–,"OA.hu.10C5.N53V.F92Y.S95F (antibody, V domains shown, One-armed (OA) monovalent anti-KLK5 antibody with a human IgG1 Fc, with Q38E/Q39K; constant regions and dummy Fc chain not specified) VH: EVQLVESGGGLVQPGGSLRLSCAASGFSLSSYGVTWVRKAPGKGLEWIGYITSVYGVSYYASWAKSRSTISRDTSKNTVYLQMGSLRAEDMAVYYCARENPDYGYAYDAWGQGTTVTVSS VL: AIRMTQSPSSFSASTGDRVTITCQASESISNELSWYQEKPGKAPKLLIYYASTLASGVPSRFSGSGSGTDFTLTISSLQPEDFATYYCAQGYGSFGVENVFGGGTKVEIK"
0.0135,9.23e-05,6.84e+06,0.0355,0.00052,1.46e+07,–,–,–,–,–,–,"OA.hu.10C5.N53V (antibody, V domains shown, One-armed (OA) monovalent anti-KLK5 antibody with a human IgG1 Fc, without Q38E/Q39K; constant regions and dummy Fc chain not specified) VH: EVQLVESGGGLVQPGGSLRLSCAASGFSLSSYGVTWVRQAPGKGLEWIGYITSVYGVSYYASWAKSRSTISRDTSKNTVYLQMGSLRAEDMAVYYCARENPDYGYAYDAWGQGTTVTVSS VL: AIRMTQSPSSFSASTGDRVTITCQASESISNELSWYQQKPGKAPKLLIYYASTLASGVPSRFSGSGSGTDFTLTISSLQPEDFATYYCAQGFGSSGVENVFGGGTKVEIK"
0.00289,9.88e-06,3.42e+06,0.0162,8.88e-05,5.48e+06,–,–,–,–,–,–,"OA.hu.10C5.N53V.S34K (antibody, V domains shown, One-armed (OA) monovalent anti-KLK5 antibody with a human IgG1 Fc, with Q38E/Q39K; constant regions and dummy Fc chain not specified) VH: EVQLVESGGGLVQPGGSLRLSCAASGFSLSSYGVTWVRKAPGKGLEWIGYITSVYGVSYYASWAKSRSTISRDTSKNTVYLQMGSLRAEDMAVYYCARENPDYGYAYDAWGQGTTVTVSS VL: AIRMTQSPSSFSASTGDRVTITCQASESISNELKWYQEKPGKAPKLLIYYASTLASGVPSRFSGSGSGTDFTLTISSLQPEDFATYYCAQGFGSSGVENVFGGGTKVEIK"
–,–,–,–,–,–,0.0121,2.39e-05,1.98e+06,0.0146,5.75e-05,3.95e+06,"OA.hu.9H5.H14L4.G54A.G98Q.H89V.S95Y (antibody, V domains shown, One-armed (OA) monovalent anti-KLK5 antibody with a human IgG1 Fc, with Q38E/Q39K; constant regions and dummy Fc chain not specified) VH: EVQLVESGGGLIQPGGSLRLSCAASGFSLSSYGVSWVRKAPGKGLEYVGFIGSAGFAYYASWAKSRFTISRDNSKNTLYLQMNSLRAEDTAVYYCARDDVQGGKSLDIWGQGTLVTVSS VL: DIQMTQSPSSLSASVGDRVTITCQASQSISSYLSWYQEKPGKAPKLLIYSASTLASGVPSRFSGSGSGTDFTLTISSLQPEDFATYYCVQDYTSYNVDNTFGGGTKVEIK"
–,–,–,–,–,–,0.0186,4.46e-05,2.4e+06,0.00978,0.000145,1.48e+07,"OA.hu.9H5.H14L4.G98Q.H89V (antibody, V domains shown, One-armed (OA) monovalent anti-KLK5 antibody with a human IgG1 Fc, with Q38E/Q39K; constant regions and dummy Fc chain not specified) VH: EVQLVESGGGLIQPGGSLRLSCAASGFSLSSYGVSWVRKAPGKGLEYVGFIGSGGFAYYASWAKSRFTISRDNSKNTLYLQMNSLRAEDTAVYYCARDDVQGGKSLDIWGQGTLVTVSS VL: DIQMTQSPSSLSASVGDRVTITCQASQSISSYLSWYQEKPGKAPKLLIYSASTLASGVPSRFSGSGSGTDFTLTISSLQPEDFATYYCVQDYTSSNVDNTFGGGTKVEIK"
